Experimental data reported in patent US20240386992A1 (MAX DELBR CK CENTRUM F R MOLEKULARE MEDIZIN IN DER …, published 2024).

Molecular target: MERS-CoV wild type receptor-binding domain (MERS-wtRBD), Twin Strep tagged (MERS-CoV)
Assay: ELISA (FIG. 9)

B1: D12 (antibody, V domains shown)
VH: EVKLVESGGGLVKPGGSLKLSCAASGFTFSSYAMSWVRQTPEKRLEWVATISSGGTYTYYPDSVKGRFTISRDNAENTLYLQMSSLRSEDTAMYYCVRDGNSMDYWGQGTSVTVSS
VL: DIQMTQTTSSLSASLGDRVTIICRASQDINNYLNWYQQKPDGTVKLLIYYTSRLHSGVPSRFSGSGSGSDYSLTISNLEQEDIATYFCQQANTLPPTFGAGTKLELR
B1: binds.

B2: LCA60 (antibody, V domains shown)
VH: EVQLLESGGGLVKPGGSLRLSCEASGLTFSNVWMSWVRQAPGKGLEWVGRIKRKSEGATTDYGAPVKGRFTLSRDDSKNTVYLQMNSLKIDDTAVYYCSTLTRGGDVWSSSYYFDYWGQGALVTVSS
VL: QSALTQPASVSGSPGQSITISCTGTSSDVGTYDLVSWYQQHPGKSPKLMIYADIKRPSGVSHRFSGSKSGNTASLTISGLQSADEADYYCCLYAGSSTSVIFGGGTKVT
B2: binds.
